# In US20240181007A1, “COMPOSITIONS AND METHODS FOR TREATING PULMONARY HYPERTENSION” (Acceleron Pharma Inc., priority 2021, published 2024):
# T1: activin A (UniProt P08476 311-426)
# T1 construct: Soluble ligand injected in SPR or added in the reporter assay
# T1 sequence (looked up): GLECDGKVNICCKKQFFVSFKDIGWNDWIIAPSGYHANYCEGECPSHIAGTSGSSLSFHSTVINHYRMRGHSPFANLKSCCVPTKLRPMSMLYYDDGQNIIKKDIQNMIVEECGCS
# T2: BMP10 (UniProt O95393 317-424)
# T2 sequence (looked up): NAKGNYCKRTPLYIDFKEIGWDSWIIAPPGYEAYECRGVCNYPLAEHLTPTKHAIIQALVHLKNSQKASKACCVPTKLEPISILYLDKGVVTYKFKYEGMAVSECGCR
# T3: activin B (UniProt P09529 293-407)
# T3 sequence (looked up): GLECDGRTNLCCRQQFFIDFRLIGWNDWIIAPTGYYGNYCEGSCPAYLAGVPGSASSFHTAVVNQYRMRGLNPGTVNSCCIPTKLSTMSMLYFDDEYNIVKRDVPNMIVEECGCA
# T4: GDF3 (UniProt Q9NR23 251-364)
# T4 sequence (looked up): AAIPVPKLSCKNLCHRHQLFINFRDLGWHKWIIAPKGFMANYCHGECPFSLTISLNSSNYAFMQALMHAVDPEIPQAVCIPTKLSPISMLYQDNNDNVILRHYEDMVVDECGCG
# T5: GDF8 (UniProt O14793 267-375)
# T5 construct: also called Growth and differentiation factor-8; myostatin
# T5 sequence (looked up): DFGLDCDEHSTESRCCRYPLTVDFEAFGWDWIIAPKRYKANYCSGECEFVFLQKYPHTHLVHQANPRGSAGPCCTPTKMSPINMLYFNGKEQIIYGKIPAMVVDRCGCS
# T6: GDF11 (UniProt O95390 299-407)
# T6 construct: also called Growth and differentiation factor-11; BMP11
# T6 sequence (looked up): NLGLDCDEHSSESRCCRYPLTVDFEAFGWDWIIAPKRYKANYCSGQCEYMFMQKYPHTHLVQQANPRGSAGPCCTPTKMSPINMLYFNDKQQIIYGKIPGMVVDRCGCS
# T7: BMP6 (UniProt P22004 382-513, limits assumed)
# T7 sequence (looked up): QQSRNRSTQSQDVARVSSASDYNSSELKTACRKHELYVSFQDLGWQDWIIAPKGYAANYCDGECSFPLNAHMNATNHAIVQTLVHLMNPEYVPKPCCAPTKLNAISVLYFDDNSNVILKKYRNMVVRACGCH
# T8: BMP9 (UniProt Q9UK05 320-429)
# T8 sequence (looked up): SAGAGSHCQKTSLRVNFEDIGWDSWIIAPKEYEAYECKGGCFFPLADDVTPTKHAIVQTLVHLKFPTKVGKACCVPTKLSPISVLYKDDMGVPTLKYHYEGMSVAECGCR
# What was measured:
# [1] = Muscle-building activity in vivo; details: material from CHO, HEK293 and COS cells; variability in potency was observed
# activin A [2] = molecular target: T1, activin A; experiment: SPR (Biacore), 37 C
# Procedure: (§1) A Biacore™-based binding assay was used to compare the ligand binding kinetics of an ActRIIB-Fc:ActRIIB(L79E)-Fc heterodimer with those of unmodified ActRIIB-Fc homodimer. Fusion proteins were captured onto the system using an anti-Fc antibody. Ligands were then injected and allowed to flow over the captured receptor protein at 37° C. Results are summarized in the table below, in which ligand off-rates (kd) most indicative of effective ligand traps are denoted in bold.
# BMP10 [3] = molecular target: T2, BMP10; experiment: SPR (Biacore), 37 C
# Procedure: as §1
# activin A [4] = molecular target: T1, activin A; experiment: SPR (Biacore), fusion protein captured by anti-Fc antibody, ligand injected, 37 C
# Procedure: as §1
# activin B = molecular target: T3, activin B; experiment: as above
# Procedure: as §1
# GDF3 = molecular target: T4, GDF3; experiment: as above
# Procedure: as §1
# GDF8 = molecular target: T5, GDF8; experiment: as above
# Procedure: as §1
# GDF11 = molecular target: T6, GDF11; experiment: as above
# Procedure: as §1
# BMP6 = molecular target: T7, BMP6; experiment: as above
# Procedure: as §1
# BMP9 = molecular target: T8, BMP9; experiment: as above
# Procedure: as §1
# BMP10 [5] = molecular target: T2, BMP10; experiment: as above
# Procedure: as §1
molecule,measurement,setting,value
ActRIIB-G1Fc: extracellular domain of human ActRIIB fused to a human G1Fc domain with a three-glycine linker; SEQ ID NO: 5,muscle-building activity in vivo,[1],muscle-building activity in vivo
"ActRIIB-Fc:ActRIIB(L79E)-Fc heterodimer (Fc fusion, The ActRIIB extracellular domains and linkers are the same in both pairs; also called ActRIIB-Fc:ActRIIB(L79E)-Fc heteromer) chain 1: GRGEAETRECIYYNANWELERTNQSGLERCEGEQDKRLHCYASWRNSSGTIELVKKGCWEDDFNCYDRQECVATEENPQVYFCCCEGNFCNERFTHLPEAGGPEVTYEPPPTAPTGGGTHTCPPCPAPELLGGPSVFLFPPKPKDTLMISRTPEVTCVVVDVSHEDPEVKFNWYVDGVEVHNAKTKPREEQYNSTYRVVSVLTVLHQDWLNGKEYKCKVSNKALPAPIEKTISKAKGQPREPQVYTLPPSREEMTKNQVSLTCLVKGFYPSDIAVEWESNGQPENNYDTTPPVLDSDGSFFLYSDLTVDKSRWQQGNVFSCSVMHEALHNHYTQKSLSLSPG chain 2: GRGEAETRECIYYNANWELERTNQSGLERCEGEQDKRLHCYASWRNSSGTIELVKKGCWLDDFNCYDRQECVATEENPQVYFCCCEGNFCNERFTHLPEAGGPEVTYEPPPTAPTGGGTHTCPPCPAPELLGGPSVFLFPPKPKDTLMISRTPEVTCVVVDVSHEDPEVKFNWYVDGVEVHNAKTKPREEQYNSTYRVVSVLTVLHQDWLNGKEYKCKVSNKALPAPIEKTISKAKGQPREPQVYTLPPSRKEMTKNQVSLTCLVKGFYPSDIAVEWESNGQPENNYKTTPPVLKSDGSFFLYSKLTVDKSRWQQGNVFSCSVMHEALHNHYTQKSLSLSPGK",fold faster off-rate compared to ActRIIB-Fc homodimer,activin A [2],~10 fold
same,fold faster off-rate compared to ActRIIB-Fc homodimer,BMP10 [3],~10 fold
same,Kd,activin A [4],0.17 nM
same,koff,activin A [4],0.0015 s⁻¹
same,kon,activin A [4],8.8e+06 M⁻¹ s⁻¹
same,Kd,activin B,0.025 nM
same,koff,activin B,0.00021 s⁻¹
same,kon,activin B,8.3e+06 M⁻¹ s⁻¹
same,Kd,GDF3,10 nM
same,koff,GDF3,0.0059 s⁻¹
same,kon,GDF3,580000 M⁻¹ s⁻¹
same,Kd,GDF8,0.15 nM
same,koff,GDF8,0.0005 s⁻¹
same,kon,GDF8,3.4e+06 M⁻¹ s⁻¹
same,Kd,GDF11,9 pM
same,koff,GDF11,0.00036 s⁻¹
same,kon,GDF11,4e+07 M⁻¹ s⁻¹
same,Kd,BMP6,0.056 nM
same,koff,BMP6,0.018 s⁻¹
same,kon,BMP6,3.3e+08 M⁻¹ s⁻¹
same,Kd,BMP9,> 2.8 nM
same,Kd,BMP10 [5],0.042 nM
same,koff,BMP10 [5],0.002 s⁻¹
same,kon,BMP10 [5],4.8e+07 M⁻¹ s⁻¹
